Test results published in patent publication US9120851B2, “Human antibodies to human angiopoietin-like protein 4” (Regeneron Pharmaceuticals, Inc., priority 2009, dated 2015).

Key:
hANGPTL4-His = target: T1, hANGPTL4-His (Homo sapiens, UniProt Q9BY76); test: BIACORE cross-reactivity, amine coupled hANGPTL4-His; assay type: binding; settings: for Specific RU, hANGPTL4-His: chip surface 6247 RU, mAb injected at 3.125-50 μg/mL
T1 construct: purchased R&D Systems 4487-AN
T1 sequence (Q9BY76 26-406): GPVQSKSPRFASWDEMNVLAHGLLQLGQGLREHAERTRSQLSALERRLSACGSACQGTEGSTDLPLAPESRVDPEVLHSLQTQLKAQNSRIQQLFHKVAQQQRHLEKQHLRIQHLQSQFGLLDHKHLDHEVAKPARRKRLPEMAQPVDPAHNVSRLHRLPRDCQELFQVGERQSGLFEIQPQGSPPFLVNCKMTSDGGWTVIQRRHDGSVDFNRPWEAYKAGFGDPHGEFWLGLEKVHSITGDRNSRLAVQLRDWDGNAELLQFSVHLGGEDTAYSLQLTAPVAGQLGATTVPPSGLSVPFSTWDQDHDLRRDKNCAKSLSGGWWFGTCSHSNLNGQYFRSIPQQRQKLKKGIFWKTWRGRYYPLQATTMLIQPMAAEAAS
Procedure: (§1) Possible cross-reactivity of the anti-hANGPTL4 antibodies to related proteins, i.e., hANGPTL3, human angiopoietin-like protein 5 (hANGPTL5) and mouse ANGPTL4 (mANGPTL4), was tested for the selected antibodies, i.e., H1H268P and H1H284P, using the BIACORE™ system. Briefly, anti-hANGPTL4 antibodies as well as negative controls, i.e., two monoclonal antibodies (Control a and Control b) that are non-binders to any ANGPTL proteins, were injected at 3.125 μg/mL-50 μg/mL over amine coupled chip surfaces of hANGPTL3-His (R&D Systems, cat #3829-AN) at 5228 RU, hANGPTL4-His (R&D Systems, cat #4487-AN) at 6247 RU, hANGPTL5-His (Abnova Corp., cat #H00253935-P01) at 5265 RU, and mANGPTL4-His [R26-S410 of mANGPTL4 (SEQ ID NO: 478) fused with an AS linker to a C-terminal 6-histidine tag] at 5233 RU, respectively. A polyclonal antibody specific for hANGPTL3 (R&D System, cat #BAF3485) was also tested.

hANGPTL3-His = target: T2, hANGPTL3-His (Homo sapiens, UniProt Q9Y5C1); test: BIACORE cross-reactivity, amine coupled hANGPTL3-His; assay type: binding; settings: for Specific RU, hANGPTL3-His: chip surface 5228 RU, mAb injected at 3.125-50 μg/mL
T2 construct: His; purchased R&D Systems 3829-AN
T2 sequence (Q9Y5C1 17-460): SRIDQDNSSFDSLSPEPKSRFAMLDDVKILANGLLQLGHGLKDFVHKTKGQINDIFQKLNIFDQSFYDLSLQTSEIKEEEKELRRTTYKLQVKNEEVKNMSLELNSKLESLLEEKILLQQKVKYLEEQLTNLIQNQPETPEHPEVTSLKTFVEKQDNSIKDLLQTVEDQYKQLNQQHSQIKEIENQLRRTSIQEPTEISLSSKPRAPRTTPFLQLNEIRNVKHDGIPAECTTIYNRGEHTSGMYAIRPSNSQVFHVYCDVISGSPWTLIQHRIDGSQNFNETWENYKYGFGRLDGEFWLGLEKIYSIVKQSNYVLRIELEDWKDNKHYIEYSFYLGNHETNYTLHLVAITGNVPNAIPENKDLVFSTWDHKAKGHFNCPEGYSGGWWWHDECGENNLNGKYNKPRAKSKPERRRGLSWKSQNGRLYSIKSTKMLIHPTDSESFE
Procedure: as §1

hANGPTL4(26-148)-mFc = target: T3, hANGPTL4(26-148)-mFc (Homo sapiens, UniProt Q9BY76); test: BIACORE, full mAb or Fab over anti-mFc captured hANGPTL4(26-148)-mFc; assay type: binding
T3 construct: amino acid residues 26-148 of human ANGPTL4 fused in-line to mouse IgG2a (hANGPTL4-mFc)

[1] = Serum human Ab levels in humanized ANGPTL4 mice, ELISA; assay type: in vivo, mouse; design: unit not given here; settings: mean±SEM
Procedure: The effect of anti-hANGPTL4 antibodies H1H268P and H1H284P on serum TG levels was determined in mice expressing the ANGPTL4 protein containing the human N-terminal coil-coil region (“humanized ANGPTL4 mice”). The humanized ANGPTL4 mouse was made by replacing first three exons of the mouse Angptl4 gene (the N terminal coil-coil region) with the corresponding human N-terminal coil-coil ANGPLT4 sequence in C57BL6/129 (F1H4) embryonic stem cells. After germ line transmission was established, heterozygous mice (ANGPTL4hum/+) were bred together to generate homozygous mice [ANGPTL4hum/hum or hANGPTL4(+/+)] on a C57BL6 background. Humanized ANGPTL4 mice were pre-bled 7 days before (day −7) the experiment and put into groups of six mice each for each antibody tested. Antibodies (H1H268P, H1H284P and isotype-matched (hIgG1) control with no known cross-reactivity to mouse antigens) were administered at 10 mg/kg dose by subcutaneous injection. Mice were bled after 4 hours of fasting at days 1, 4, 7 and 11 after antibody injection; and serum TG levels were determined by ADVIA® 1800 Chemistry System (Siemens). Average TG levels were calculated for each time point for each antibody.
Levels of circulating anti-hANGPTL4 antibodies (“serum human Ab”) were also determined using a standard ELISA assay. Briefly, plates were coated with a goat anti-human Fc antibody (Sigma-Aldrich) to capture serum human Ab. Serum was then added to the plates and captured anti-hANGPTL4 antibodies were detected by chemiluminescence using a horseradish peroxidase (HRP)-conjugated goat anti-human IgG antibody (Sigma-Aldrich).

hANGPTL5-His = target: T4, hANGPTL5-His (Homo sapiens, UniProt Q86XS5); test: BIACORE cross-reactivity, amine coupled hANGPTL5-His; assay type: binding; settings: for Specific RU, hANGPTL5-His: chip surface 5265 RU, mAb injected at 3.125-50 μg/mL
T4 construct: His; purchased Abnova Corp. H00253935-P01
Procedure: as §1

mANGPTL4-His = target: T5, mANGPTL4-His (Mus musculus, UniProt Q9Z1P8); test: BIACORE cross-reactivity, amine coupled mANGPTL4-His; assay type: binding; settings: for Specific RU, mANGPTL4-His: chip surface 5233 RU, mAb injected at 3.125-50 μg/mL
T5 sequence (Q9Z1P8 26-410): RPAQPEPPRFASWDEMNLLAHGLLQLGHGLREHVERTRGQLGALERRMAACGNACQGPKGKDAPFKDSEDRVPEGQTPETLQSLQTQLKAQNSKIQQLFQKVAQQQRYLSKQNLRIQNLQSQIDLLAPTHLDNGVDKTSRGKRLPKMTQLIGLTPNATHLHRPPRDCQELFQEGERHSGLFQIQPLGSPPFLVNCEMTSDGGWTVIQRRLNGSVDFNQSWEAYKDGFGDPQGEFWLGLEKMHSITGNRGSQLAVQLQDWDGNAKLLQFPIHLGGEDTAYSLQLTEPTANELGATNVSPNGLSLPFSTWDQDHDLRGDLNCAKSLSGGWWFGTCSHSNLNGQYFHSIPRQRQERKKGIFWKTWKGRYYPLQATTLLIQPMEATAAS
Procedure: as §1

[2] = pH 5.75, 25° C., antigen captured 27 ± 0.6 RU
[3] = pH 7.2, 25° C., antigen captured 35 ± 1.9 RU
[4] = day 1 after injection, 10 mg/kg s.c.
[5] = day 4 after injection, 10 mg/kg s.c.
[6] = day 7 after injection, 10 mg/kg s.c.
[7] = day 11 after injection, 10 mg/kg s.c.

T3 sequence (Q9BY76 with tags, fused parts or gaps): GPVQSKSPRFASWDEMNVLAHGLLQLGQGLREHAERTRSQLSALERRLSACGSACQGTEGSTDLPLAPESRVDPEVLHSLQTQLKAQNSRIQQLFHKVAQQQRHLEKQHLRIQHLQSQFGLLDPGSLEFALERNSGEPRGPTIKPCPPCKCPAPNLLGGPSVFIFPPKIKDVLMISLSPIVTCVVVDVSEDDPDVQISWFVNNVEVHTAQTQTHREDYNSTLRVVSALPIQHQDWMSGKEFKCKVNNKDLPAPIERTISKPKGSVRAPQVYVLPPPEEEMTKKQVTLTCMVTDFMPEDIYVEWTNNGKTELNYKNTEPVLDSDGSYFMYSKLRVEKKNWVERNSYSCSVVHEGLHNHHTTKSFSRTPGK
T4 sequence (Q86XS5 26-388): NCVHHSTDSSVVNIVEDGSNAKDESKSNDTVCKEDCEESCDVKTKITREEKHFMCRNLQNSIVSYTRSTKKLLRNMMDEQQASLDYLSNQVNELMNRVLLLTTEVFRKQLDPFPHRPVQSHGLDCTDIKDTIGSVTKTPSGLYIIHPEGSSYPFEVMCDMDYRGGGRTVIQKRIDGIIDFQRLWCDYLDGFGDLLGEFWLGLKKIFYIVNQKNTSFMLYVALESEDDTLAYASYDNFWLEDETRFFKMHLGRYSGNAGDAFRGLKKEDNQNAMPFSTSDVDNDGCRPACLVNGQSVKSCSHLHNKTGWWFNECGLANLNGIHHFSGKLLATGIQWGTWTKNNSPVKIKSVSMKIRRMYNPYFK

B1: H1H268P: anti-hANGPTL4 antibody, hIgG1 isotype, HCVR/LCVR SEQ ID NOs 42/44 (antibody, V domains shown)
VH: QVQLQESGAGLLKPSETLSLTCTVYGGSFSIHHWTWIRHPPGKGLEWIGEINHRGSTNYNPSLKSRVTISIDTSKNQFSLKLSAVTAADTAVYYCARGLRFLDWLSSYFDYWGQGTLVTVSS
VL: DIQMTQSPSSLSASVGDRVTITCRASQGISDYLAWYQQKPGKVPNLLIYAASALQSGVPSRFSGSGSGTDFTLTISSLQPEDVATYYCQNYNTAPLTFGGGTKVEIK
For B1, the “binding to hANGPTL4-His, in words” value (hANGPTL4-His) was “bound specifically”, the “Specific RU, hANGPTL4-His” value (hANGPTL4-His) was 768 RU and the “binding to hANGPTL3-His (other related ANGPTL protein), in words” value (hANGPTL3-His) was “did not bind”. The “Specific RU, hANGPTL3-His” value (hANGPTL3-His) was −17 RU, the “Response bound at 50 nM mAb or Fab (RU)” value (hANGPTL4(26-148)-mFc; [2]) was 77 and the “Response bound at 50 nM mAb or Fab (RU)” value (hANGPTL4(26-148)-mFc; [3]) was 40. For the same molecule, the “Serum Human Antibody” value [1, 4] was 24130 ± 1788, the “Serum Human Antibody” value [1, 5] was 16557 ± 1369 and the “Serum Human Antibody” value [1, 6] was 12586 ± 1176. The “Serum Human Antibody” value [1, 7] was 6106 ± 1111, the “Serum Human Antibody” value ([1]; day −7 (pre-bleed)) was 2.92 ± 2.92 and the “binding to hANGPTL5-His (other related ANGPTL protein), in words” value (hANGPTL5-His) was “did not bind”. For the same molecule, the “Specific RU, hANGPTL5-His” value (hANGPTL5-His) was −16 RU, the “binding to mANGPTL4-His (other related ANGPTL protein), in words” value (mANGPTL4-His) was “did not bind” and the “Specific RU, mANGPTL4-His” value (mANGPTL4-His) was −7 RU.

B2: H1H284P: anti-hANGPTL4 antibody, hIgG1 isotype, HCVR/LCVR SEQ ID NOs 90/92 (antibody, V domains shown)
VH: QVQLVESGGGVVQPGRSLRLSCAASGFTFSSYGMHWVRQAPGKGLEWMAVISFDGGNKNNADSVKGRFTISRDNSKNTLYLQMNSLRAEDTAVYYCAKEGDRSGHPYFYYYGLDVWGQGTTVTVS
VL: DIQLTQSPSFLSASVGDRVTITCWASQGISSYLAWYQQKPGKAPKLLIYAASTLQSGVPSRFSGSGSETEFTLTISSLQPEDFATYYCQQLHSYPLTFGGGTKVEIK
For B2, the “binding to hANGPTL4-His, in words” value (hANGPTL4-His) was “bound specifically”, the “Specific RU, hANGPTL4-His” value (hANGPTL4-His) was 1351 RU and the “binding to hANGPTL3-His (other related ANGPTL protein), in words” value (hANGPTL3-His) was “did not bind”. The “Specific RU, hANGPTL3-His” value (hANGPTL3-His) was −6 RU, the “Response bound at 50 nM mAb or Fab (RU)” value (hANGPTL4(26-148)-mFc; [2]) was 171 and the “Response bound at 50 nM mAb or Fab (RU)” value (hANGPTL4(26-148)-mFc; [3]) was 99. For the same molecule, the “Serum Human Antibody” value [1, 4] was 16459 ± 1455, the “Serum Human Antibody” value [1, 5] was 9103 ± 767 and the “Serum Human Antibody” value [1, 6] was 2428 ± 525. For the same molecule, the “Serum Human Antibody” value [1, 7] was 135 ± 38, the “Serum Human Antibody” value ([1]; day −7 (pre-bleed)) was 3.02 ± 2.38 and the “binding to hANGPTL5-His (other related ANGPTL protein), in words” value (hANGPTL5-His) was “did not bind”. For the same molecule, the “Specific RU, hANGPTL5-His” value (hANGPTL5-His) was −13 RU, the “binding to mANGPTL4-His (other related ANGPTL protein), in words” value (mANGPTL4-His) was “did not bind” and the “Specific RU, mANGPTL4-His” value (mANGPTL4-His) was 18 RU.
